Assay results published in US12065466B2, “Methods and compositions for protein sequencing” (Quantum-Si Incorporated, priority 2020, dated 2024).
Read-outs that look alike come from different tables or passages of the source.

Experiments:
[1] = tested on: immobilized peptides containing N-terminal R, K or H; assay: Biolayer interferometry of UBR-box domain homologs; format: binding; conditions: for binding range for RX dipeptides: 14 peptides RXGGGDDDFFK (SEQ ID NO: 241)
Protocol: The amino acid binding properties of UBR-box domain homologs were evaluated by biolayer interferometry. Peptides containing an N-terminal arginine (R), followed by different amino acids in the penultimate position, were immobilized on a biolayer interferometry sensor surface, allowed to bind to UBR-box protein, and incubated in buffer to allow the UBR-box molecules to dissociate. […] FIG. 32C is a heatmap showing results measured for 24 UBR-box homologs against 14 polypeptides containing N-terminal R followed by different amino acids in the penultimate position.
UBR proteins bind to the basic N-terminal residues R, K, and H as part of the conserved N-end rule pathway. To identify high-affinity UBR proteins with properties favorable for use in sequencing, a diverse panel of uncharacterized UBR-box domain homologs from 44 species (PS501-PS544) was designed. UBR-box domain homologs were expressed, purified, and evaluated for binding to N-terminal amino acids by biolayer interferometry. Measurements were carried out at 30° C. for each protein for R, K and H binding. The amino-acid binding profile of each new homolog was first evaluated by biolayer interferometry using a single-point screening assay. All peptides in this screen contained a penultimate alanine (A) and consisted of the sequence XAKLDEESILKQK (SEQ ID NO: 238), where X is R, K, or H.
To evaluate the effect of penultimate amino acids on arginine binding, UBR box-domain homologs were evaluated for binding to 14 different peptides with N-terminal RX (peptide sequence: RXGGGDDDFFK (SEQ ID NO: 241)). The selected RX dipeptides are the 14 most frequently found in the human proteome.

[2] = tested on: labeled peptide (XAKLDEESILKQK-FITC (SEQ ID NO: 238)); RA, KA, HA; assay: Single point fluorescence polarization assay of UBR-streptavidin complex; format: binding
Protocol: Single point fluorescence polarization assays were then performed for selected candidates. These assays measured the interaction of labeled peptide (XAKLDEESILKQK-FITC (SEQ ID NO: 238)) with UBR-streptavidin complex in a format in which these molecules are free in solution. Measurements of polarization response (millipolarization, mP) and total intensity for RA, KA, and HA peptides were performed.

[3] = tested on: RA and KA peptides; assay: Fluorescence polarization binding titration of UBR-box domain candidates (KD); conditions: RA peptide
Protocol: The binding affinity of selected UBR-box domain candidates was then evaluated by measuring KD (dissociation constant) values for N-terminal R and K peptides. Assays were performed for RA and KA peptides at increasing concentration of UBR protein (FIG. 32G, top plots). KD values were determined from the binding titration curves.

[4] = tested on: dye-labeled RL peptide; assay: Peptide-on-chip recognition assay for N-terminal arginine peptide; format: binding
Protocol: Peptide-on-chip recognition assays for N-terminal arginine peptide were performed with PS621 and PS528. Both PS528 and PS621 recognized N-terminal R, and binding to dye-labeled RL peptide at the single-molecule level was confirmed in these recognition assays, with average pulse width of approximately 60 ms.

[5] = molecular target: N-terminal arginine peptide (alanine at the penultimate position); assay: Fluorescence polarization binding affinity of tandem recognizers, RA peptide
Protocol: Three different constructs were designed and expressed for each multivalent UBR-box binder: PS690, PS691, and PS692 (Bis-PS621 binders having Linker 1, Linker 2, and Linker 3, respectively); and PS693, PS694, and PS695 (Bis-PS528 binders having Linker 1, Linker 2, and Linker 3, respectively). Fluorescence polarization studies were performed to evaluate the binding affinity of each of the multivalent UBR-box binders, and the corresponding monomeric binders, for a peptide having an N-terminal arginine residue with an alanine residue at the penultimate position. The KD values obtained from these studies are reported below in Table 11.

[6] = tested on: amino acid at a terminal position of a polypeptide; conditions: Table 2; amino acid identity at a terminal position (phosphotyrosine also internal); inferred from literature and/or demonstrated by the inventors; cited from earlier work
[7] = molecular target: N-terminal phenylalanine peptide (alanine at the penultimate position); assay: Fluorescence polarization binding affinity of tandem recognizers, FA peptide
Protocol: The multivalent binder PS651 was designed as a tandem fusion molecule expressed from a single coding sequence containing segments encoding three copies of atClpS2-V1 (Tris-atClpS2-V1) joined end-to-end by segments encoding a flexible peptide linker (Linker 2). Fluorescence polarization studies were performed with PS651, the Bis-atClpS2-V1 binders (PS609, PS610, PS611), and the monomeric binder atClpS2-V1, to determine the binding affinity of each for a peptide having an N-terminal phenylalanine residue with an alanine residue at the penultimate position. The KD values obtained from these studies are reported below in Table 9.

[8] = tested on: amino acid at a terminal position of a polypeptide; assay: Amino acid binding preference of recognition proteins (Tables 1 and 2); conditions: Table 1, ClpS proteins; amino acid identity at a terminal position of a polypeptide; inferred from literature and/or demonstrated by the inventors
From the text: It should be appreciated that these sequences and other examples described herein are meant to be non-limiting, and recognition molecules in accordance with the application can include any homologs, variants thereof, or fragments thereof minimally containing domains or subdomains responsible for peptide recognition.

[9] = tested on: peptides with different N-terminal amino acids, penultimate alanine; assay: Biolayer interferometry of multivalent amino acid binders; format: binding
Protocol: The amino acid binding profile of each Bis-atClpS2-V1 binder (PS609, PS610, and PS611) was evaluated by biolayer interferometry as described above. The monovalent atClpS2-V1 was run as a control. Measurements with each binder were carried out for the amino acids F, Y, and W, along with I, L, M, and V as negative controls. All peptides contained a penultimate alanine (A). Response curves for the tandem binders PS609, PS610, and PS611 are shown in FIGS. 35B, 35C, and 35D, respectively.
The multivalent binder PS612 is a polypeptide that contains tandem copies of two different ClpS protein monomers (atClpS2-V1 and PS372). The amino acid binding profile of PS612 was evaluated by biolayer interferometry as described above. The monovalent binders atClpS2-V1 and PS372 were separately run as controls.
The multivalent binder PS614 is a polypeptide that contains two copies of the ClpS binder PS372 oriented in tandem. The amino acid binding profile of PS614 was evaluated by biolayer interferometry as described above.
The multivalent binders PS637, PS638, and PS639 are polypeptides that each contain two copies of the ClpS binder PS557 oriented in tandem and separated by Linker 1, Linker 2, and Linker 3, respectively. The amino acid binding profiles of each binder was evaluated by biolayer interferometry as described above.

[10] = tested on: FITC labeled N-terminal LA peptide; assay: Stopped-flow association rate constant (kon), PS557 derivatives; format: binding
Protocol: Stopped-flow assays were performed to measure the association (kon) and dissociation (koff) rates for PS557, atClpS2-V1, and fusion proteins derived by C-terminal addition of protein shields. To measure the on-rate constant by stopped-flow, the binder was rapidly mixed with FITC labeled peptide, and the reaction was followed in real time. N-terminal LA peptide was used for PS557 derivatives and N-terminal FA peptide was used for atClpS2-V1 derivatives. In this assay, the fluorescence signal decreased due to quenching upon protein binding. The averaged traces obtained at multiple concentrations of binder were fitted with a decay equation to derive association rates (FIG. 37A, middle panel). A linear slope from the plot of association rates against different binder concentrations gave the kon rate constant (FIG. 37A, bottom panel).

[11] = tested on: labeled N-terminal LA peptide; assay: Stopped-flow dissociation rate (koff), PS557 derivatives; format: binding; conditions: excess unlabeled trap peptide
From the text: To measure the dissociation rate (koff) by stopped-flow, complexes of binder bound to labeled peptide substrate at an optimal concentration were rapidly mixed with excess unlabeled trap peptide. […] The averaged raw traces were fitted with an exponential equation to determine the koff (FIG. 37B, bottom panel).

| Molecule | binding range for RX dipeptides [1] | binding to RA/KA/HA peptides (single-point screening) ([1]; 30° C., XAKLDEESILKQK) | polarization response with RA peptide [2] | average pulse width [4] | Binding Pref. [6] | LA kon [10] [M⁻¹ s⁻¹] | LA koff [11] [s⁻¹] | other results |
| --- | --- | --- | --- | --- | --- | --- | --- | --- |
| PS528: UBR-box domain homolog, SEQ ID NO: 156 (protein, listed as Kluyveromyces lactis) MHSKFNHAGRICGAKFRVGEPIYRCKECSFDDTCVLCVNCFNPKDHVGHHVYTSICTEFNNGICDCGDKEAWNHELNCKGAED | extensive binding range for RX dipeptides | favorable binding trajectories to RA and KA peptides with notably high response for RA peptide | bind to RA peptides with strong responses | approximately 60 ms | K, R, H | – | – | binding affinity to N-terminal R with different penultimate amino acids ([1]; 14 polypeptides containing N-terminal R): high binding affinity to R in the presence of a wide range of penultimate amino acids; dissociation trajectory and HA peptide binding ([1]; 30° C., XAKLDEESILKQK): slower dissociation trajectory and displayed binding to HA peptide; Kd [3]: 460 nM; Kd [5]: 403 nM |
| PS621: UBR-box domain homolog, SEQ ID NO: 181 (protein, listed as Kluyveromyces marxianus) MHSKFSHAGRICGAKFKVGEPIYRCKECSFDDTCVLCVNCFNPKDHTGHHVYTTICTEFNNGICDCGDKEAWNHTLFCKAEEG | extensive binding range for RX dipeptides | favorable binding characteristics with results that were similar to PS528 | bind to RA peptides with strong responses | approximately 60 ms | K, R, H | – | – | – |
| PS609: single polypeptide with two tandem copies of atClpS2-V1 joined by Linker 1 (SEQ ID NO: 243) (protein) MSDSPVDLKPKPKVKPKLERPKLYKVMLLNDDYTPMSFVTVVLKAVFRMSEDTGRRVMMTAHRFGSAVVVVCERDIAETKAKEATDLGKEAGFPLMFTTEPEEGGGSGGGSGGGSGMSDSPVDLKPKPKVKPKLERPKLYKVMLLNDDYTPMSFVTVVLKAVFRMSEDTGRRVMMTAHRFGSAVVVVCERDIAETKAKEATDLGKEAGFPLMFTTEPEEGHHHHHHHHHHGGGSGGGSGGGSGLNDFFEAQKIEWHEGGGSGGGSGGGSGLNDFFEAQKIEWHE | – | – | – | – | – | – | – | Kd [7]: 221 nM |
| PS557: PS372-homologous ClpS protein, SEQ ID NO: 71 (protein, listed as Planctomycetes bacterium) MPTAASATESAIEDTPAPARPEVDGRTKPKRQPRYHVVLWNDDDHTYQYVVVMLQSLFGHPPERGYRLAKEVDTQGRVIVLTTTREHAELKRDQIHAFGYDRLLARSKGSMKASIEAEE | – | – | – | – | – | 1.8e+06 | 0.22 | Binding Pref. [8]: I, L, V; N-terminal amino acids bound (biolayer interferometry) [9]: binds N-terminal I, L, and V |
| PS698 (protein) MPTAASATESAIEDTPAPARPEVDGRTKPKRQPRYHVVLWNDDDHTYQYVVVMLQSLFGHPPERGYRLAKEVDTQGRVIVLTTTREHAELKRDQIHAFGYDRLLARSKGSMKASIEAEEHHHHHHHHHHGGGSGGGSGGGSGLNDFFEAQKIEWHEGGGSGGGSGGGSGLNDFFEAQKIEWHEGSAGSAAGSGEFMDKDCEMKRTTLDSPLGKLELSGCEQGLHEIKLLGKGTSAADAVEVPAPAAVLGGPEPLMQATAWLNAYFHQPEAIEEFPVPALHHPVFQQESFTRQVLWKLLKVVKFGEVISYQQLAALAGNPAATAAVKTALSGNPVPILIPCHRVVSSSGAVGGYEGGLAVKEWLLAHEGHRLGKPGLG | – | – | – | – | – | 4e+06 | 0.19 | – |
